{"source": "the supplement of paper PMC9112550", "about": "“Optimization of the antimicrobial peptide Bac7 by deep mutational scanning” (BMC Biology, 2022);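 also: peptides expressed intracellularly from a pBAD plasmid library in pooled LB shake-flask culture, induced with 0.3% L-arabinose, DNA abundance read by NGS, three biological replicates, DESeq2 with apeglm shrinkage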"}
{"tested_on": "Escherichia coli TOP10", "test": "shrunken log2 fold change of peptide-encoding DNA abundance (4.5 h post-induction vs induction); higher = less antimicrobial activity (less host growth inhibition)", "conditions": "time post-induction: 4.5 h; library: site-saturation at positions 5, 18, 19, 20"}
{"sequence": "RRIRMRPPRLPRPRPRPFWIPRP", "shrunken log2 fold change": 0.00154}
{"sequence": "RRIRDRPPRLPRPRPRPASQPRP", "shrunken log2 fold change": 0.0836}
{"sequence": "RRIRNRPPRLPRPRPRPLMLPRP", "shrunken log2 fold change": -0.842}
{"sequence": "RRIRNRPPRLPRPRPRPRMPPRP", "shrunken log2 fold change": -0.0444}
{"sequence": "RRIRTRPPRLPRPRPRPGGYPRP", "shrunken log2 fold change": -0.0912}
{"sequence": "RRIRYRPPRLPRPRPRPKRFPRP", "shrunken log2 fold change": 0.00705}
{"sequence": "RRIRWRPPRLPRPRPRPCLEPRP", "shrunken log2 fold change": 0.012}
{"sequence": "RRIRIRPPRLPRPRPRPPYYPRP", "shrunken log2 fold change": -0.827}
{"sequence": "RRIRNRPPRLPRPRPRPKDIPRP", "shrunken log2 fold change": 0.0127}
{"sequence": "RRIRDRPPRLPRPRPRPFREPRP", "shrunken log2 fold change": -0.376}
{"sequence": "RRIRNRPPRLPRPRPRPQIHPRP", "shrunken log2 fold change": -0.364}
{"sequence": "RRIRYRPPRLPRPRPRPTMFPRP", "shrunken log2 fold change": -0.234}
{"sequence": "RRIRPRPPRLPRPRPRPGKRPRP", "shrunken log2 fold change": 0.389}
{"sequence": "RRIRGRPPRLPRPRPRPYWIPRP", "shrunken log2 fold change": -0.311}
{"sequence": "RRIRTRPPRLPRPRPRPNFDPRP", "shrunken log2 fold change": 0.232}
{"sequence": "RRIRQRPPRLPRPRPRPLYHPRP", "shrunken log2 fold change": -0.283}
{"sequence": "RRIRNRPPRLPRPRPRPFRYPRP", "shrunken log2 fold change": -0.591}
{"sequence": "RRIRKRPPRLPRPRPRPLICPRP", "shrunken log2 fold change": 0.123}
{"sequence": "RRIRWRPPRLPRPRPRPSHIPRP", "shrunken log2 fold change": -0.241}
{"sequence": "RRIRLRPPRLPRPRPRPHDRPRP", "shrunken log2 fold change": -0.132}
{"sequence": "RRIRFRPPRLPRPRPRPYKAPRP", "shrunken log2 fold change": -0.153}
{"sequence": "RRIRKRPPRLPRPRPRPCWHPRP", "shrunken log2 fold change": 0.00832}
{"sequence": "RRIRGRPPRLPRPRPRPSRFPRP", "shrunken log2 fold change": 0.0371}
{"sequence": "RRIRHRPPRLPRPRPRPVNRPRP", "shrunken log2 fold change": -0.26}
{"sequence": "RRIRNRPPRLPRPRPRPTDKPRP", "shrunken log2 fold change": 0.008}
{"sequence": "RRIRGRPPRLPRPRPRPFFGPRP", "shrunken log2 fold change": 0.188}
{"sequence": "RRIRARPPRLPRPRPRPVLHPRP", "shrunken log2 fold change": 0.288}
{"sequence": "RRIRGRPPRLPRPRPRPRPIPRP", "shrunken log2 fold change": 0.635}
{"sequence": "RRIRMRPPRLPRPRPRPIRIPRP", "shrunken log2 fold change": -0.0023}
{"sequence": "RRIRGRPPRLPRPRPRPHNYPRP", "shrunken log2 fold change": -0.248}
{"sequence": "RRIRRRPPRLPRPRPRPKSQPRP", "shrunken log2 fold change": 0.104}
{"sequence": "RRIRIRPPRLPRPRPRPDWCPRP", "shrunken log2 fold change": -0.149}
{"sequence": "RRIRRRPPRLPRPRPRPLDEPRP", "shrunken log2 fold change": 0.632}
{"sequence": "RRIRARPPRLPRPRPRPADAPRP", "shrunken log2 fold change": 0.473}
{"sequence": "RRIRMRPPRLPRPRPRPYWAPRP", "shrunken log2 fold change": -0.0573}
{"sequence": "RRIRNRPPRLPRPRPRPWCRPRP", "shrunken log2 fold change": -0.525}
{"sequence": "RRIRVRPPRLPRPRPRPLQIPRP", "shrunken log2 fold change": -0.0888}
{"sequence": "RRIRGRPPRLPRPRPRPLHPPRP", "shrunken log2 fold change": 0.697}
{"sequence": "RRIRVRPPRLPRPRPRPTSKPRP", "shrunken log2 fold change": -0.144}
{"sequence": "RRIRIRPPRLPRPRPRPSEYPRP", "shrunken log2 fold change": -0.0435}
{"sequence": "RRIRHRPPRLPRPRPRPGRSPRP", "shrunken log2 fold change": 3.99}
{"sequence": "RRIRERPPRLPRPRPRPNAWPRP", "shrunken log2 fold change": 0.113}
{"sequence": "RRIRDRPPRLPRPRPRPRCFPRP", "shrunken log2 fold change": 1.66}
{"sequence": "RRIRCRPPRLPRPRPRPFRWPRP", "shrunken log2 fold change": 0.406}
{"sequence": "RRIRNRPPRLPRPRPRPKTFPRP", "shrunken log2 fold change": -0.399}
{"sequence": "RRIRMRPPRLPRPRPRPTTAPRP", "shrunken log2 fold change": 1.19}
{"sequence": "RRIRARPPRLPRPRPRPPRFPRP", "shrunken log2 fold change": 1.13}
{"sequence": "RRIRTRPPRLPRPRPRPASRPRP", "shrunken log2 fold change": 0.279}
{"sequence": "RRIRKRPPRLPRPRPRPPSMPRP", "shrunken log2 fold change": 0.669}
{"sequence": "RRIRQRPPRLPRPRPRPILQPRP", "shrunken log2 fold change": 0.292}
{"sequence": "RRIRLRPPRLPRPRPRPPWKPRP", "shrunken log2 fold change": 0.153}
{"sequence": "RRIRDRPPRLPRPRPRPNPQPRP", "shrunken log2 fold change": -0.19}
{"sequence": "RRIRDRPPRLPRPRPRPYGFPRP", "shrunken log2 fold change": -0.0405}
{"sequence": "RRIRFRPPRLPRPRPRPCIIPRP", "shrunken log2 fold change": -0.568}
{"sequence": "RRIRWRPPRLPRPRPRPGCDPRP", "shrunken log2 fold change": 0.818}
{"sequence": "RRIRIRPPRLPRPRPRPKYFPRP", "shrunken log2 fold change": -0.288}
{"sequence": "RRIRCRPPRLPRPRPRPHGLPRP", "shrunken log2 fold change": -0.0989}
{"sequence": "RRIRCRPPRLPRPRPRPEWFPRP", "shrunken log2 fold change": 0.000144}
{"sequence": "RRIRKRPPRLPRPRPRPEYYPRP", "shrunken log2 fold change": -0.053}
{"sequence": "RRIRIRPPRLPRPRPRPDFYPRP", "shrunken log2 fold change": -0.554}
{"sequence": "RRIRIRPPRLPRPRPRPSNIPRP", "shrunken log2 fold change": -0.207}
{"sequence": "RRIRDRPPRLPRPRPRPYCSPRP", "shrunken log2 fold change": -0.335}
{"sequence": "RRIRYRPPRLPRPRPRPIMPPRP", "shrunken log2 fold change": -0.948}
{"sequence": "RRIRMRPPRLPRPRPRPPPGPRP", "shrunken log2 fold change": 1.86}
{"sequence": "RRIRERPPRLPRPRPRPYCEPRP", "shrunken log2 fold change": -0.0402}
{"sequence": "RRIRTRPPRLPRPRPRPFQPPRP", "shrunken log2 fold change": 0.0737}
{"sequence": "RRIRRRPPRLPRPRPRPNQAPRP", "shrunken log2 fold change": 0.212}
{"sequence": "RRIRNRPPRLPRPRPRPENEPRP", "shrunken log2 fold change": -0.00386}
{"sequence": "RRIRVRPPRLPRPRPRPTKVPRP", "shrunken log2 fold change": -0.341}
{"sequence": "RRIRQRPPRLPRPRPRPHCCPRP", "shrunken log2 fold change": -0.0421}
{"sequence": "RRIRQRPPRLPRPRPRPPPGPRP", "shrunken log2 fold change": 0.751}
{"sequence": "RRIRDRPPRLPRPRPRPEMFPRP", "shrunken log2 fold change": -0.0156}
{"sequence": "RRIRDRPPRLPRPRPRPETIPRP", "shrunken log2 fold change": 0.17}
{"sequence": "RRIRVRPPRLPRPRPRPSIGPRP", "shrunken log2 fold change": -0.197}
{"sequence": "RRIRTRPPRLPRPRPRPWSLPRP", "shrunken log2 fold change": -0.673}
